Data: patent US20140087995A1 (published 2014)
Numbered stars: 1 amine (or outer) side, 2 acyl side, 3 side chain; on linkers, the order of the positions; unused ones are H or OH. Bridge positions count the residues as written; N and C are the ends. Side chains are listed from the residue outwards. Ends that are not written are not given here. * marks the point of attachment. C20 diacid = O=C(O)CCCCCCCCCCCCCCCCCCC(=O)*; γGlu = O=C(O)[C@H](CCC(=O)[*:2])N[*:1]; AEEA = NCCOCCOCC(=O)O

T1: human calcitonin receptor (human, UniProt P30988 25-474)
T1 sequence (looked up): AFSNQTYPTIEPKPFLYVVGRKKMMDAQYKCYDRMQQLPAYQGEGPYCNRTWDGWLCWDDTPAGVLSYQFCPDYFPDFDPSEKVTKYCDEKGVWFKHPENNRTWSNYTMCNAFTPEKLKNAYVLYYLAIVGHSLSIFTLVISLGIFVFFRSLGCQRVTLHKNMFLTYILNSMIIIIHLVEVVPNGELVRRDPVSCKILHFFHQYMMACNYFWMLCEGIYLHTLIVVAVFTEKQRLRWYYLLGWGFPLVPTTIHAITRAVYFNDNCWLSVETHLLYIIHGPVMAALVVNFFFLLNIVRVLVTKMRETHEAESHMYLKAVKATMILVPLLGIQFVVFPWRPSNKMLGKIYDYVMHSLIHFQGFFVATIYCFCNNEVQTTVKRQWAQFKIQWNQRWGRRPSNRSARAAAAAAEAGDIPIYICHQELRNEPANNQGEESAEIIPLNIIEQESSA

T2: human amylin receptor (amylin 3(a) receptor: human calcitonin receptor with RAMP-3) (human, UniProt P30988 25-474; O60896 24-148)
T2 sequence (looked up) 1: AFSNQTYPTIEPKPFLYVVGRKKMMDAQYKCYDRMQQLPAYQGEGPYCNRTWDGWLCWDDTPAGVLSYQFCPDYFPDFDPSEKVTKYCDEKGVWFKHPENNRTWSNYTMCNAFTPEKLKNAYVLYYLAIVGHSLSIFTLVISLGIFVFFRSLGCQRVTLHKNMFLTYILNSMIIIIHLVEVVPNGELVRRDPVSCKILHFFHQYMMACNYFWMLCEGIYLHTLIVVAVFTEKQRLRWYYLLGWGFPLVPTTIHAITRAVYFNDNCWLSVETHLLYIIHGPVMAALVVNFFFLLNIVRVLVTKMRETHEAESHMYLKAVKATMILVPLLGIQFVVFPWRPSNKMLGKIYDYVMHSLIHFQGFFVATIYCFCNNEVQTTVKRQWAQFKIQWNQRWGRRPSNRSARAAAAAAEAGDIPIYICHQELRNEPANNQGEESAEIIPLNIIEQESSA
T2 sequence (looked up) 2: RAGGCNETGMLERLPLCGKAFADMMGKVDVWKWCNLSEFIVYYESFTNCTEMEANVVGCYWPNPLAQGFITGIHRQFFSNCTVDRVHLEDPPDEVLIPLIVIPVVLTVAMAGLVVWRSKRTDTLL


Tests used:
[1] = target: T1, human calcitonin receptor; assay: cell-based or functional assay
[2] = target: T2, human amylin receptor (amylin 3(a) …); assay: cell-based or functional assay

Binder | Ratio hCT/hAmylin funct. [1] | hCTR funct. EC50 [1] | hAmylin-R funct. EC50 [2]
{C20 diacid-γGlu-γGlu}-KCNTATCATQRLAEFLRHSSPNFGAIPSSTNVGSNTP-NH2 (disulfide 2-7; SMILES CC[C@H](C)[C@H](NC(=O)[C@H](C)NC(=O)CNC(=O)[C@H](Cc1ccccc1)NC(=O)[C@H](CC(N)=O)NC(=O)[C@@H]1CCCN1C(=O)[C@H](CO)NC(=O)[C@H](CO)NC(=O)[C@H](Cc1c[nH]cn1)NC(=O)[C@H](CCCNC(=N)N)NC(=O)[C@H](CC(C)C)NC(=O)[C@H](Cc1ccccc1)NC(=O)[C@H](CCC(=O)O)NC(=O)[C@H](C)NC(=O)[C@H](CC(C)C)NC(=O)[C@H](CCCNC(=N)N)NC(=O)[C@H](CCC(N)=O)NC(=O)[C@@H](NC(=O)[C@H](C)NC(=O)[C@@H]1CSSC[C@H](NC(=O)[C@H](CCCCN)NC(=O)CC[C@H](NC(=O)CC[C@H](NC(=O)CCCCCCCCCCCCCCCCCCC(=O)O)C(=O)O)C(=O)O)C(=O)N[C@@H](CC(N)=O)C(=O)N[C@@H]([C@@H](C)O)C(=O)N[C@@H](C)C(=O)N[C@@H]([C@@H](C)O)C(=O)N1)[C@@H](C)O)C(=O)N1CCC[C@H]1C(=O)N[C@@H](CO)C(=O)N[C@@H](CO)C(=O)N[C@H](C(=O)N[C@@H](CC(N)=O)C(=O)N[C@H](C(=O)NCC(=O)N[C@@H](CO)C(=O)N[C@@H](CC(N)=O)C(=O)N[C@H](C(=O)N1CCC[C@H]1C(N)=O)[C@@H](C)O)C(C)C)[C@@H](C)O, also called compound 14) | 1.6 | 0.238 nM | 0.146 nM
K([AEEA-AEEA-γGlu-C20 diacid])CNTATCATQRLANFLRHSSPNFGAIPSSTNVGSETY-NH2 (disulfide 2-7; N-terminus assumed; SMILES CC[C@H](C)[C@H](NC(=O)[C@H](C)NC(=O)CNC(=O)[C@H](Cc1ccccc1)NC(=O)[C@H](CC(N)=O)NC(=O)[C@@H]1CCCN1C(=O)[C@H](CO)NC(=O)[C@H](CO)NC(=O)[C@H](Cc1c[nH]cn1)NC(=O)[C@H](CCCNC(=N)N)NC(=O)[C@H](CC(C)C)NC(=O)[C@H](Cc1ccccc1)NC(=O)[C@H](CC(N)=O)NC(=O)[C@H](C)NC(=O)[C@H](CC(C)C)NC(=O)[C@H](CCCNC(=N)N)NC(=O)[C@H](CCC(N)=O)NC(=O)[C@@H](NC(=O)[C@H](C)NC(=O)[C@@H]1CSSC[C@H](NC(=O)[C@@H](N)CCCCNC(=O)COCCOCCNC(=O)COCCOCCNC(=O)CC[C@H](NC(=O)CCCCCCCCCCCCCCCCCCC(=O)O)C(=O)O)C(=O)N[C@@H](CC(N)=O)C(=O)N[C@@H]([C@@H](C)O)C(=O)N[C@@H](C)C(=O)N[C@@H]([C@@H](C)O)C(=O)N1)[C@@H](C)O)C(=O)N1CCC[C@H]1C(=O)N[C@@H](CO)C(=O)N[C@@H](CO)C(=O)N[C@H](C(=O)N[C@@H](CC(N)=O)C(=O)N[C@H](C(=O)NCC(=O)N[C@@H](CO)C(=O)N[C@@H](CCC(=O)O)C(=O)N[C@H](C(=O)N[C@@H](Cc1ccc(O)cc1)C(N)=O)[C@@H](C)O)C(C)C)[C@@H](C)O, also called compound 25) | 46.2 | 10 nM | 0.217 nM
K([γGlu-C20 diacid])CNTATCATQRLANFLRHSSPNFGAIPSSTNVGSKTY-NH2 (disulfide 2-7; N-terminus assumed; SMILES CC[C@H](C)[C@H](NC(=O)[C@H](C)NC(=O)CNC(=O)[C@H](Cc1ccccc1)NC(=O)[C@H](CC(N)=O)NC(=O)[C@@H]1CCCN1C(=O)[C@H](CO)NC(=O)[C@H](CO)NC(=O)[C@H](Cc1c[nH]cn1)NC(=O)[C@H](CCCNC(=N)N)NC(=O)[C@H](CC(C)C)NC(=O)[C@H](Cc1ccccc1)NC(=O)[C@H](CC(N)=O)NC(=O)[C@H](C)NC(=O)[C@H](CC(C)C)NC(=O)[C@H](CCCNC(=N)N)NC(=O)[C@H](CCC(N)=O)NC(=O)[C@@H](NC(=O)[C@H](C)NC(=O)[C@@H]1CSSC[C@H](NC(=O)[C@@H](N)CCCCNC(=O)CC[C@H](NC(=O)CCCCCCCCCCCCCCCCCCC(=O)O)C(=O)O)C(=O)N[C@@H](CC(N)=O)C(=O)N[C@@H]([C@@H](C)O)C(=O)N[C@@H](C)C(=O)N[C@@H]([C@@H](C)O)C(=O)N1)[C@@H](C)O)C(=O)N1CCC[C@H]1C(=O)N[C@@H](CO)C(=O)N[C@@H](CO)C(=O)N[C@H](C(=O)N[C@@H](CC(N)=O)C(=O)N[C@H](C(=O)NCC(=O)N[C@@H](CO)C(=O)N[C@@H](CCCCN)C(=O)N[C@H](C(=O)N[C@@H](Cc1ccc(O)cc1)C(N)=O)[C@@H](C)O)C(C)C)[C@@H](C)O, also called compound 35) [N^ε1-[(4S)-4-carboxy-4-(19-carboxynonadecanoylamino)butanoyl]-[Arg17,Pro21,Pro27,Lys35]-h-amylin] | 15 | 5.46 nM | 0.364 nM
K([AEEA-γGlu-C20 diacid])CNTATCATQRLANFLRHSSPNFGAIPSSTNVGSETY-NH2 (disulfide 2-7; N-terminus assumed; SMILES CC[C@H](C)[C@H](NC(=O)[C@H](C)NC(=O)CNC(=O)[C@H](Cc1ccccc1)NC(=O)[C@H](CC(N)=O)NC(=O)[C@@H]1CCCN1C(=O)[C@H](CO)NC(=O)[C@H](CO)NC(=O)[C@H](Cc1c[nH]cn1)NC(=O)[C@H](CCCNC(=N)N)NC(=O)[C@H](CC(C)C)NC(=O)[C@H](Cc1ccccc1)NC(=O)[C@H](CC(N)=O)NC(=O)[C@H](C)NC(=O)[C@H](CC(C)C)NC(=O)[C@H](CCCNC(=N)N)NC(=O)[C@H](CCC(N)=O)NC(=O)[C@@H](NC(=O)[C@H](C)NC(=O)[C@@H]1CSSC[C@H](NC(=O)[C@@H](N)CCCCNC(=O)COCCOCCNC(=O)CC[C@H](NC(=O)CCCCCCCCCCCCCCCCCCC(=O)O)C(=O)O)C(=O)N[C@@H](CC(N)=O)C(=O)N[C@@H]([C@@H](C)O)C(=O)N[C@@H](C)C(=O)N[C@@H]([C@@H](C)O)C(=O)N1)[C@@H](C)O)C(=O)N1CCC[C@H]1C(=O)N[C@@H](CO)C(=O)N[C@@H](CO)C(=O)N[C@H](C(=O)N[C@@H](CC(N)=O)C(=O)N[C@H](C(=O)NCC(=O)N[C@@H](CO)C(=O)N[C@@H](CCC(=O)O)C(=O)N[C@H](C(=O)N[C@@H](Cc1ccc(O)cc1)C(N)=O)[C@@H](C)O)C(C)C)[C@@H](C)O, also called compound 26) | 29.9 | 6.34 nM | 0.212 nM
{C20 diacid-γGlu}-KCNTATCATQRLAEFLRHSSPNFGAIPSSTNVGSETY-NH2 (disulfide 2-7; SMILES CC[C@H](C)[C@H](NC(=O)[C@H](C)NC(=O)CNC(=O)[C@H](Cc1ccccc1)NC(=O)[C@H](CC(N)=O)NC(=O)[C@@H]1CCCN1C(=O)[C@H](CO)NC(=O)[C@H](CO)NC(=O)[C@H](Cc1c[nH]cn1)NC(=O)[C@H](CCCNC(=N)N)NC(=O)[C@H](CC(C)C)NC(=O)[C@H](Cc1ccccc1)NC(=O)[C@H](CCC(=O)O)NC(=O)[C@H](C)NC(=O)[C@H](CC(C)C)NC(=O)[C@H](CCCNC(=N)N)NC(=O)[C@H](CCC(N)=O)NC(=O)[C@@H](NC(=O)[C@H](C)NC(=O)[C@@H]1CSSC[C@H](NC(=O)[C@H](CCCCN)NC(=O)CC[C@H](NC(=O)CCCCCCCCCCCCCCCCCCC(=O)O)C(=O)O)C(=O)N[C@@H](CC(N)=O)C(=O)N[C@@H]([C@@H](C)O)C(=O)N[C@@H](C)C(=O)N[C@@H]([C@@H](C)O)C(=O)N1)[C@@H](C)O)C(=O)N1CCC[C@H]1C(=O)N[C@@H](CO)C(=O)N[C@@H](CO)C(=O)N[C@H](C(=O)N[C@@H](CC(N)=O)C(=O)N[C@H](C(=O)NCC(=O)N[C@@H](CO)C(=O)N[C@@H](CCC(=O)O)C(=O)N[C@H](C(=O)N[C@@H](Cc1ccc(O)cc1)C(N)=O)[C@@H](C)O)C(C)C)[C@@H](C)O, also called compound 22) | 3.8 | 1.03 nM | 0.27 nM
K([γGlu-C20 diacid])CNTATCATQRLANFLRHSSPNFGAIPSSTNVGSETY-NH2 (disulfide 2-7; N-terminus assumed; SMILES CC[C@H](C)[C@H](NC(=O)[C@H](C)NC(=O)CNC(=O)[C@H](Cc1ccccc1)NC(=O)[C@H](CC(N)=O)NC(=O)[C@@H]1CCCN1C(=O)[C@H](CO)NC(=O)[C@H](CO)NC(=O)[C@H](Cc1c[nH]cn1)NC(=O)[C@H](CCCNC(=N)N)NC(=O)[C@H](CC(C)C)NC(=O)[C@H](Cc1ccccc1)NC(=O)[C@H](CC(N)=O)NC(=O)[C@H](C)NC(=O)[C@H](CC(C)C)NC(=O)[C@H](CCCNC(=N)N)NC(=O)[C@H](CCC(N)=O)NC(=O)[C@@H](NC(=O)[C@H](C)NC(=O)[C@@H]1CSSC[C@H](NC(=O)[C@@H](N)CCCCNC(=O)CC[C@H](NC(=O)CCCCCCCCCCCCCCCCCCC(=O)O)C(=O)O)C(=O)N[C@@H](CC(N)=O)C(=O)N[C@@H]([C@@H](C)O)C(=O)N[C@@H](C)C(=O)N[C@@H]([C@@H](C)O)C(=O)N1)[C@@H](C)O)C(=O)N1CCC[C@H]1C(=O)N[C@@H](CO)C(=O)N[C@@H](CO)C(=O)N[C@H](C(=O)N[C@@H](CC(N)=O)C(=O)N[C@H](C(=O)NCC(=O)N[C@@H](CO)C(=O)N[C@@H](CCC(=O)O)C(=O)N[C@H](C(=O)N[C@@H](Cc1ccc(O)cc1)C(N)=O)[C@@H](C)O)C(C)C)[C@@H](C)O, also called compound 27) [N^ε1-[(4S)-4-carboxy-4-(19-carboxynonadecanoylamino)butanoyl]-[Arg17,Pro21,Pro27,Glu35]-h-amylin] | 22.6 | 3 nM | 0.133 nM
